Results reported in IntAct's records for PubMed 10814541.

B1: Thioredoxin (Homo sapiens), P10599 (parent)
chain: MVKQIESKTAFQEALDAAGDKLVVVDFSATWCGPCKMIKPFFHSLSEKYSNVIFLEVDVDDCQDVASECEVKCMPTFQFFKKGQKVGEFSGANKEKLEATINELV
partner: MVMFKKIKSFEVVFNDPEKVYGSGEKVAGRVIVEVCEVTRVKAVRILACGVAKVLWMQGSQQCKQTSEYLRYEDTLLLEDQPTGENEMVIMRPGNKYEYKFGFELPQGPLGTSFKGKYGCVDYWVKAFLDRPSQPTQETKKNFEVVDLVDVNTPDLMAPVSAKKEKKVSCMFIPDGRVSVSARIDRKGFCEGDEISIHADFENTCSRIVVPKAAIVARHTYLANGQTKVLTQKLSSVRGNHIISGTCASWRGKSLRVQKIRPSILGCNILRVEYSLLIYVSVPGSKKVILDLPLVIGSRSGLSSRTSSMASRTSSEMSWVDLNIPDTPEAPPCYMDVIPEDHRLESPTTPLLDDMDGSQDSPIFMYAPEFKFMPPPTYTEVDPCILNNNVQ

Variants of: B1
Conditions: with txnip_human TXNIP

Row | Variant | effect of a mutation on the interaction
1 | C32S;C35S | decreasing interaction
